Data: patent US20170058030A1
One block for each substance: values may come before it.

Tests used:
[1] = molecular target: FcγRIIb-GST (human) (UniProt P31994); assay: SPR, IgG on chip, dimeric FcγRIIB, bivalent fit, KD = KD1/(1 + 1/KD2)
[2] = molecular target: FcγRI-His (human) (UniProt P12314); assay: ELISA, IgG coated, 60 nM FcγRI
[3] = molecular target: FcγRIIIa-V158-GST (human) (UniProt P08637); assay: ELISA, IgG coated, 200 nM receptor
[4] = molecular target: FcγRIIa-R131-GST (human) (UniProt P12318); assay: ELISA, IgG coated, 200 nM receptor
[5] = molecular target: FcγRIIa-H131-GST (human) (UniProt P12318); assay: ELISA, IgG coated, 200 nM receptor
[6] = molecular target: FcγRIIIa-F158-GST (human) (UniProt P08637); assay: ELISA, IgG coated, 200 nM receptor
[7] = molecular target: FcγRIIb-GST (human) (UniProt P31994); assay: SPR, IgG on chip, dimeric FcγRIIB, bivalent fit
[8] = molecular target: FcγRIIb-GST (human) (UniProt P31994); assay: ELISA, IgG coated, 60 nM receptor
[9] = molecular target: FcγRI-His (human) (UniProt P12314); assay: SPR, IgG on chip, 200 nM monomeric FcγRI
[10] = molecular target: mFcγRIII-His (mouse) (UniProt P08508); assay: FACS on spheroplasts, 1 µM mFcγRIII, anti-His-PE
[11] = molecular target: mFcγRII-His (mouse); assay: FACS on spheroplasts, 100 nM b-mFcγRII, SA-PE
[12] = molecular target: mFcγRI-His (mouse) (UniProt P08101); assay: FACS on spheroplasts, 1 µM mFcγRI, anti-His-PE
[13] = molecular target: mFcγRIV-His (mouse); assay: FACS on spheroplasts, 1 µM mFcγRIV, anti-His-PE
[14] = molecular target: mFcγRIII-His (mouse) (UniProt P08508)
[15] = molecular target: mFcγRII-His (mouse)
[16] = molecular target: FcγRIIIa-V158-GST (human) (UniProt P08637); assay: ELISA, STPK-Fc coated, receptor titrated
[17] = molecular target: FcγRIIb-GST (human) (UniProt P31994); assay: FACS on spheroplasts, 400 nM FcγRIIB-GST
[18] = molecular target: FcγRIIA (H131 and R131)-GST (human) (UniProt P12318); assay: FACS on spheroplasts, 400 nM FcγRIIA-GST
[19] = molecular target: FcγRIIb-GST (human) (UniProt P31994); assay: FACS on spheroplasts, 100 nM FcγRIIb-GST-PE
[20] = molecular target: FcγRIIb-GST (human) (UniProt P31994); assay: FACS on spheroplasts, 400 nM FcγRIIB-GST; remark: listed apart in the source
[21] = molecular target: FcγRIIa-R131-GST (human) (UniProt P12318); assay: ELISA: antibody coated on the plate, receptor titrated in 5-fold steps, HRP-labelled secondary antibody, absorbance at 450 nm
[22] = molecular target: FcγRIIa-H131-GST (human) (UniProt P12318); assay: as above

Substance: STPK-mFc (from UniProt P00779 27-440) (Fc fusion)
Kd [14]: 14.9 µM
Kd [15]: 16.1 µM
IC50 [16]: > 0.3 µM

Substance: wild-type aglycosylated IgG1 displayed on E. coli spheroplasts (antibody)
MFI [17]: 14
MFI [18]: 40.9
MFI [19]: 23.5
MFI [20]: 11.1

The remaining lines, values ahead:

Kd [1]: 8.07 µM
absorbance at 450 nm [2]: 1.51
absorbance at 450 nm [3]: 0.848
absorbance at 450 nm [4]: 1.44
absorbance at 450 nm [5]: 2.35
absorbance at 450 nm [6]: 0.203
kD1 [7]: 8.69e-06
kD2 [7]: 13.1
absorbance at 450 nm [8]: 0.183
RUmax [9]: 260 RU
Substance: Rituximab (glycosylated, wild-type IgG1 Fc) (antibody)

MFI [10]: 143
MFI [11]: 61.8
MFI [12]: 515
MFI [13]: 155
Substance: wild-type aglycosylated mIgG1 displayed on E. coli spheroplasts (antibody)

EC50 (read off the curve) [21]: 0.01 µM
EC50 (read off the curve) [22]: 0.04 µM
Substance: glycosylated wild type IgG1 (control of Example 10) (antibody)
